Assay results: article doi:10.1101/2020.02.26.964882

Target: COVID-19 virus main protease (M^pro) (COVID-19 virus)
Experiment: crystal structure

COVID-19 virus main protease (M^pro) (enzyme)
stoichiometry N: 2
